The source of these data is US20100260765A1 (AstraZeneca / MedImmune, published 2010).

For test [1], the target named is KDR endogenously expressed on human umbilical vein endothelial cells (HUVEC) (human, UniProt P35968 20-1356). The test is described as follows: cell-based or functional assay.
Test [2] deals with T1, soluble KDR extracellular domain (ECD) (Calbiochem) (human, UniProt P35968 20-764).
T1 construct: extracellular domain; Bought protein; also called KDR-ECD; VEGF Receptor 2 D1-7, Cat. #676490
Put plainly: High Antigen ELISA, KDR coat 500 ng/mL, supernatant 1:75. For orientation: ELISA stands for enzyme-linked immunosorbent assay.

For test [3], the target named is T1, soluble KDR extracellular domain (ECD) …. The test is described as follows: Limited Antigen ELISA, KDR coat 12.5 ng/mL, supernatant 1:25. As for the experimental part: (§1) Samples containing one concentration of antibody (Ab) (1:25 dilution) were incubated overnight to allow Ab binding to approach equilibrium. The low antigen concentration limited the effect of antibody concentration, allowing ranking of the antibodies based on their relative affinity.

For test [4] the target is unchanged. Put plainly: Limited Antigen ELISA, KDR coat 3.125 ng/mL, supernatant 1:25. As for the experimental part:
as §1

The target is the same in test [5]. The test is described as follows: High Antigen ELISA, KDR coat 500 ng/mL, supernatant 1:675.
Test [6] shares this target. Put plainly: High Antigen ELISA, KDR coat 500 ng/mL, supernatant 1:6075.
For test [7] the target is unchanged. The test is described as follows: High Antigen ELISA, KDR coat 500 ng/mL, supernatant 1:225.
Test [8] shares this target. Put plainly: High Antigen ELISA, KDR coat 500 ng/mL, supernatant 1:25.
Test [9] shares this target. Put plainly: High Antigen ELISA, KDR coat 500 ng/mL, supernatant 1:18,225.
For test [10] the target is unchanged. The test is described as follows: Limited Antigen ELISA, KDR coat 25 ng/mL, supernatant 1:25. As for the experimental part: as §1
Test [11] shares this target. Put plainly: Limited Antigen ELISA, KDR coat 50 ng/mL, supernatant 1:25. As for the experimental part: as §1
The target is the same in test [12]. Put plainly: High Antigen ELISA, KDR coat 500 ng/mL, supernatant 1:2025.
For test [13] the target is unchanged. Put plainly: Limited Antigen ELISA, KDR coat 6.25 ng/mL, supernatant 1:25. As for the experimental part:
as §1

Where a chain is given by its changes, count along the chain named.

Chain of KDR endogenously expressed on human umbilical vein endothelial cells (HUVEC) (P35968 20-1356): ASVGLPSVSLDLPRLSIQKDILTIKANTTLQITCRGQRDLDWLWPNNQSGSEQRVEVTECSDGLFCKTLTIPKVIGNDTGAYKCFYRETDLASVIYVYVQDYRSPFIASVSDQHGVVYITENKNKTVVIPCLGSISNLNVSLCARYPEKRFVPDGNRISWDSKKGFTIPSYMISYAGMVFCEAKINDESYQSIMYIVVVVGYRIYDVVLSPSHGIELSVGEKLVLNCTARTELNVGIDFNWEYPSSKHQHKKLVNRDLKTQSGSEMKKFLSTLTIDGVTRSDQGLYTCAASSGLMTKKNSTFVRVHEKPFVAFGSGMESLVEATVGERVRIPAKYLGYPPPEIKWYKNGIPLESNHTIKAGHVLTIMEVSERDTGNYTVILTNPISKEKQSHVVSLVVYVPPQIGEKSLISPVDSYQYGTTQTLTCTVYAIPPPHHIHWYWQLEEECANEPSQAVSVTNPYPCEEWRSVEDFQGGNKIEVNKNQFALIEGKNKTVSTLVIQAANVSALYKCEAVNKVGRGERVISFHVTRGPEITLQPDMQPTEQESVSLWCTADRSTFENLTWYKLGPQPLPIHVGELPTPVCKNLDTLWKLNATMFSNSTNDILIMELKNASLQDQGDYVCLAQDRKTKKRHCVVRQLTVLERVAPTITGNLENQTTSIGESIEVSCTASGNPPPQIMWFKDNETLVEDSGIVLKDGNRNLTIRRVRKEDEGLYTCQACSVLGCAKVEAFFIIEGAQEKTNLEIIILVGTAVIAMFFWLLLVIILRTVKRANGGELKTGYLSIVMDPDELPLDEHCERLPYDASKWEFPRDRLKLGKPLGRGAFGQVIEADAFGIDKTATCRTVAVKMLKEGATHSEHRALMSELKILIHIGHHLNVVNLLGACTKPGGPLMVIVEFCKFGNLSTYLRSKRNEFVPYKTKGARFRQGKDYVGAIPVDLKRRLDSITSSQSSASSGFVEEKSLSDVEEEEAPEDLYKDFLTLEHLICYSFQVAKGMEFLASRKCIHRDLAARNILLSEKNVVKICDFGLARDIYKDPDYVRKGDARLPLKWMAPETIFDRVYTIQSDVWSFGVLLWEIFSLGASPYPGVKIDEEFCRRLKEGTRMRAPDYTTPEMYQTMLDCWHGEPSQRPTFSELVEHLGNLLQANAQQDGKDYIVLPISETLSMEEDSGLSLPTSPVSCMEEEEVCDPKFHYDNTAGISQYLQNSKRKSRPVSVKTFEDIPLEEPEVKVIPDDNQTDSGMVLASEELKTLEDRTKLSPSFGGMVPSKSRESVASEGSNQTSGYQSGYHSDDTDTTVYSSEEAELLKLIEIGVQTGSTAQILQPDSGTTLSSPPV
T1 sequence (P35968 20-764): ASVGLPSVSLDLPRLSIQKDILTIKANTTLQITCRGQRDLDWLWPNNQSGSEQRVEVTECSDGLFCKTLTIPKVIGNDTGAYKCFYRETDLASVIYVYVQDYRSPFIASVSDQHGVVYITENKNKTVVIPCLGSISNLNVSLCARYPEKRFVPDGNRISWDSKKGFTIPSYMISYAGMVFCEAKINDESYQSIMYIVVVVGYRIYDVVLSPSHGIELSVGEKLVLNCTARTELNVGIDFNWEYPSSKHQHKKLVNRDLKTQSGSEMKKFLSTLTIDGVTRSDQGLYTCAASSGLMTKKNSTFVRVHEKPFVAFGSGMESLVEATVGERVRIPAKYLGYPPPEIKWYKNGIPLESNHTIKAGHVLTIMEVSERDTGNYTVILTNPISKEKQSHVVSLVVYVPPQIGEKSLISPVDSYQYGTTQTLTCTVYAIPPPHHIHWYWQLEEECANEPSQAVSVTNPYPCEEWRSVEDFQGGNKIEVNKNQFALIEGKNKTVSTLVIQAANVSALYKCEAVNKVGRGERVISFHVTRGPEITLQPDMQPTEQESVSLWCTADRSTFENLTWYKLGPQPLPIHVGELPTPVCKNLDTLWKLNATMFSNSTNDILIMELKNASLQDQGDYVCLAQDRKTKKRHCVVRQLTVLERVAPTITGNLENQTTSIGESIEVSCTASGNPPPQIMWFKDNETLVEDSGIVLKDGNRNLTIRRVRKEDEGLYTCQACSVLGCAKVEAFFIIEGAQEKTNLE

B1: 33E1 (antibody, V domains shown)
VH: QVQLQESGPGLVKPSQTLSLTCTVSGGSISSGDHYWSWIRQHPGKGLEWIGHIYYSGSTDYNPSLKSRVTISVDTSKNHFSLKLNSVTAADTAVYYCARTNSSSWSDWYFDLWGRGTLVTVSS
VL: DIVMTQSPDSLAVSLGERATINCKSSQSILYSSNNKNYLAWYQRKPGQPPILLIHWASTRESGVPDRFSGSGSRTDFTLTISSLQAEDVAVYYCQQYFITPWTFGQGTKVEIK
notes: Fully human mAb from XenoMouse hybridoma, tested as hybridoma supernatant
As for B1, the “VEGF-E-mediated Survival % Inhibition (Average)” value in [1] turned out to be 60%. Further, in [1], the “VEGF-E-mediated Survival % Inhibition (n = 1)” value came to 66%. Further, the “VEGF-E-mediated Survival % Inhibition (n = 2)” value in test [1] was determined as 54%. Further, the ELISA reading in test [2] was determined as 4.24; in [3], 0.15; in test [4], 0.07; in test [5] it was 3.51; in test [6], 0.98; in test [7] it was 4.07. Also, the ELISA reading in test [8] is 4.06; in test [9] it was 0.49; in test [10] it was 0.36; in test [11], 0.85; in test [12], 2.09; in test [13], 0.11.

B2: 29A11 (antibody, V domains shown)
VH: EVQLLESGGGLVQPGGSLRLSCAASGFTFSNYAMNWVRQAPGKGLEWVSAISGGGGNTYYADSVKGRFTISRDNSKNTLYLQMNRLRAEDTAVYYCAKASGDDWGQGTLVTVSS
VL: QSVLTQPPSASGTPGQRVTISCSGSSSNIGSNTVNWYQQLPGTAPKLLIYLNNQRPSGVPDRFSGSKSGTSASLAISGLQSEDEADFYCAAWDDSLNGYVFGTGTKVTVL
notes: as for B1
For the molecule B2, in test [1], the “VEGF-E-mediated Survival % Inhibition (Average)” value was 5%. Also, the “VEGF-E-mediated Survival % Inhibition (n = 1)” value in test [1] is 8%. The “VEGF-E-mediated Survival % Inhibition (n = 2)” value in [1] came out at 1%. Also, the ELISA reading in [2] was 6; in test [3], 1.05; in [4] it was 0.3; in [5] it was 5.09; in [6], 2.16; in test [7] it was 6. In addition, the ELISA reading in [8] amounted to 4.66; in [9], 0.99; in test [10] it was 1.9; in test [11] it was 3.43; in test [12], 4.33; in test [13], 0.59.

B3: 30H10 (antibody, V domains shown)
VH: B2 VH with N35S, G54S, N57I, Y80F, R85S, D103N, T111S
VL: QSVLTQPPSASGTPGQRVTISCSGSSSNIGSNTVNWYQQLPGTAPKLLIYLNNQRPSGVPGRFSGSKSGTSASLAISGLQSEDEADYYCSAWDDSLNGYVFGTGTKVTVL
notes: as for B1
B3: in test [1], the “VEGF-E-mediated Survival % Inhibition (Average)” value was -10%. For the same molecule, the “VEGF-E-mediated Survival % Inhibition (n = 1)” value in test [1] was -21%. Further, in test [1], the “VEGF-E-mediated Survival % Inhibition (n = 2)” value is 2%. Moreover, the ELISA reading in [2] was found to be 6; in test [3], 0.52; in test [4], 0.17; in test [5], 4.61; in test [6], 1.18; in test [7], 6. For the same molecule, the ELISA reading in test [8] is 4.42; in [9], 0.64; in [10] it was 1.18; in test [11] it was 2.21; in test [12], 2.52; in test [13], 0.31.

B4: 32C11 (antibody, V domains shown)
VH: B2 VH with G10T, N35S, G54R, G55A, N57S, Y80F, R85S
VL: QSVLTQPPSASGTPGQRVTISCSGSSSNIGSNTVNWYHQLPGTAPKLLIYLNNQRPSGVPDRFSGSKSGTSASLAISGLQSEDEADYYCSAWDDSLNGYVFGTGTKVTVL
notes: as for B1
As to B4, in [1], the “VEGF-E-mediated Survival % Inhibition (Average)” value is 6%. In addition, the “VEGF-E-mediated Survival % Inhibition (n = 1)” value in test [1] was determined as 5%. Moreover, the “VEGF-E-mediated Survival % Inhibition (n = 2)” value in [1] was found to be 7%. Besides, the ELISA reading in [2] is 6; in test [3], 0.69; in [4], 0.2; in [5] it was 2.02; in test [6] it was 0.27; in test [7] it was 4.28. Also, the ELISA reading in [8] came out at 4.36; in test [9] it was 0.14; in test [10], 1.12; in [11], 2.48; in test [12], 0.82; in test [13], 0.35.

B5: 30E3 (antibody, V domains shown)
VH: B2 VH with M34L, N35S, G54S, G56R, I70L, Y80F, R85S, D103N
VL: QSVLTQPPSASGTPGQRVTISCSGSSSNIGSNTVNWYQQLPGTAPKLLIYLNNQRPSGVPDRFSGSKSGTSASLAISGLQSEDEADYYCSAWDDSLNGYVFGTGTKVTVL
notes: as for B1
As for B5, the “VEGF-E-mediated Survival % Inhibition (Average)” value in test [1] is -14%. Besides, the “VEGF-E-mediated Survival % Inhibition (n = 1)” value in test [1] was -21%. The “VEGF-E-mediated Survival % Inhibition (n = 2)” value in test [1] was -7%. In addition, the ELISA reading in test [2] worked out at 4.78; in test [3] it was 0.73; in test [4], 0.24; in [5] it was 2.12; in test [6], 0.32; in [7], 4.45. Besides, the ELISA reading in [8] came out at 6; in test [9], 0.18; in test [10] it was 1.37; in [11] it was 2.71; in test [12], 0.86; in [13], 0.43.

B6: 30F6 (antibody, V domains shown)
VH: QVQLVESGGGVVQPGRSLRLSCAASGFTFSTYGMHWVRQAPGKGLEWVAVIWYDGSNKYYADSVKGRFTISRDNSKNTLYLQMNSLRAEDTAVYYCACSYWNDDYYYGMDVWGQGTTVTVSS
VL: DIQMTQSPSSLSASVGDRVIITCRASQNISSYLIWYQQKPGKAPNLLIHTTSSLQRGVPSRFSGSGSGTDFTLTISSLQPEDFATYYCQQSYSAPLTFGGGTKVEIK
notes: as for B1
On to B6, for which, in test [1], the “VEGF-E-mediated Survival % Inhibition (Average)” value was 37%. In test [1], the “VEGF-E-mediated Survival % Inhibition (n = 1)” value was 31%. Moreover, the “VEGF-E-mediated Survival % Inhibition (n = 2)” value in test [1] was found to be 43%. For the same molecule, the ELISA reading in [2] was determined as 3.12; in [3] it was 0.25; in [4] it was 0.1; in [5], 0.93; in [6], 0.16; in [7], 2.42. The ELISA reading turned out to be 3.04 in test [8]; 0.09 in test [9]; 0.31 in test [10]; 0.52 in test [11]; 0.35 in [12]; 0.13 in test [13].

B7: 31E11 (antibody, V domains shown)
VH: QVQLVESGGGLVKPGGSLRLSCAASGFTFSDYYMSWIRQAPGKGLEWVSYISISGSTIYYADSVKGRFTISRDNAKNSLYLQMNSLRAEDTAVYYCARDDFWSGYYFNWFDPWGQGTLVTVSS
VL: DIQMTQSPSSLSASVGDRVTITCRANQTISTFLNWYQQNPGKAPKLLIYAASSLQSGVPSRFSGSGSGTDFTLTISSLQPEDFATYYCQQTYIIPLTFGGGTKVEIK
notes: as for B1
For B7, the “VEGF-E-mediated Survival % Inhibition (Average)” value in test [1] came to 55%. In [1], the “VEGF-E-mediated Survival % Inhibition (n = 1)” value turned out to be 56%. Further, the “VEGF-E-mediated Survival % Inhibition (n = 2)” value in test [1] came to 54%. Besides, the ELISA reading in [2] was determined as 6; in [3], 0.68; in test [4] it was 0.2; in [5], 3.6; in test [6], 0.62; in test [7], 4.61. For the same molecule, the ELISA reading in test [8] amounted to 4.48; in [9] it was 0.31; in test [10], 1.24; in [11], 2.37; in [12], 1.81; in test [13], 0.39.

B8: 33C3 (antibody, V domains shown)
VH: B7 VH with G16E, I53H, S54G, A88V, Y95F, T117A
VL: DIQMTQYPLSLSASVGDRVTITCRASQSISSFLNWYHQKPGKAPKLLIYGTSSLQSGVPSRFSGSGSGTDFTLTISSLQPEDFATYYCQQTYSIPLTFGGGTNVEIK
notes: as for B1
B8: the “VEGF-E-mediated Survival % Inhibition (Average)” value in [1] was found to be 74%. In test [1], the “VEGF-E-mediated Survival % Inhibition (n = 1)” value was determined as 78%. In addition, in test [1], the “VEGF-E-mediated Survival % Inhibition (n = 2)” value was determined as 69%. Also, the ELISA reading in [2] worked out at 4.96; in [3] it was 0.72; in test [4], 0.2; in test [5], 2.55; in [6], 0.31; in test [7], 4.31. Besides, the ELISA reading in [8] was 4.96; in [9], 0.18; in test [10] it was 1.32; in test [11] it was 3; in [12], 0.84; in [13], 0.37.
